{"source": "paper PMC11698656", "key": {"[1]": {"biological_target": "derived human TRPV6 (C157, M378, M681) (human)", "assay": "cryo-EM structure"}, "[2]": {"biological_target": "ancestral human TRPV6 (R157, V378, T681) (human)", "assay": "cryo-EM structure"}}}
{"substance": "derived human TRPV6 (C157, M378, M681) (natural protein)", "values": [{"measurement": "stoichiometry N", "setting": "[1]", "result": 4}]}
{"substance": "endogenous calmodulin (CaM) (from UniProt P0DP23 1-149) (natural protein)", "values": [{"measurement": "stoichiometry N (CaM per TRPV6 tetramer)", "setting": "[2]", "result": 1}]}
{"substance": "ancestral human TRPV6 (R157, V378, T681) (natural protein)", "values": [{"measurement": "stoichiometry N", "setting": "[2]", "result": 4, "unit": "subunits"}]}
